The test addresses T1, Mesothelin (Homo sapiens (Human), UniProt Q13421 296-598).
T1 construct: Soluble analyte in SPR at 0.15-111 nM
Briefly: SPR, antibody as ligand, mesothelin as analyte. A general note: Surface plasmon resonance follows binding to a sensor surface in real time, without labels.

Several values for one entry are separate records, joined by “and”; a condition that tells them apart may be missing. Equal values may be shown once.

T1 sequence (Q13421 other isoform, or with tags, fused parts or gaps limits assumed): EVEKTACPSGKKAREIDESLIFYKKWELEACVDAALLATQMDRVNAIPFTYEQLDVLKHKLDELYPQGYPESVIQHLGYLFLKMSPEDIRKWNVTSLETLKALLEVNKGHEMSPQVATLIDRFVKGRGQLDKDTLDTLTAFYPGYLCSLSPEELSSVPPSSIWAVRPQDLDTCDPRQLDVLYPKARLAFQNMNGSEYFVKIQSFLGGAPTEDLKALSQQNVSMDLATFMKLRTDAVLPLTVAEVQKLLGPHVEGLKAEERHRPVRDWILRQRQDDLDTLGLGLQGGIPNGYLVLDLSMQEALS

B1: 7B1 IgG1 LALA anti-mesothelin antibody (antibody, V domains shown)
VH: EVHLVESGGGLVQPGGSLRLSCAASGFTFSRYWMSWVRQAQGKGLEWVASIKQAGSEKTYVDSVKGRFTISRDNAKNSLSLQMNSLRAEDTAVYYCAREGAYYYDSASYYPYYYYYSMDVWGQGTTVTVSS
VL: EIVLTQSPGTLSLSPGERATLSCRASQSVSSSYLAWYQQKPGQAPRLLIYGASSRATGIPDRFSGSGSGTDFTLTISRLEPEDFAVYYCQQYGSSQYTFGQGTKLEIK
notes: Tested as IgG1 with LALA mutations; It was the immobilised ligand in the SPR; two samples were measured; also called 7B1 IgG1 LALA AA cAb7385-10.16; 7b1 IgG1 LALA - Sample 1
Regarding B1, the dissociation constant (Kd) was 0.912 nM and 0.658 nM; the koff is 0.000189 s⁻¹ and 0.000132 s⁻¹; the kon is 207000 M⁻¹ s⁻¹ and 201000 M⁻¹ s⁻¹.

The term Kd denotes a measure of binding affinity in units of concentration. What is called koff is a measure of how fast the partners let go of each other. A low value points to a long-lived complex. The kon is a measure of how fast the partners come together. A higher kon goes with faster complex formation.

The values above are taken from patent publication US20240101638A1 (CURRUS BIOLOGICS, published 2024).
